Patent US5863888A, “Human Bek Fibroblast growth factor receptor” (Rhone-Poulenc Rorer Pharmaceuticals Inc., priority 1995, dated 1999)
Like-named read-outs stand apart in the source and are kept apart here.

B1: aFGF: Bovine derived acidic fibroblast growth factor, purified, radioiodinated for binding (protein, UniProt P03968 16-155, looked up)
Fibroblast growth factor 1: FNLPLGNYKKPKLLYCSNGGYFLRILPDGTVDGTKDRSDQHIQLQLCAESIGEVYIKSTETGQFLAMDTDGLLYGSQTPNEECLFLERLEENHYNTYISKKHAEKHWFVGLKKNGRSKLGPRTHFGQKAILFLPLPVSSD
modifications: radioiodinated
B2: kFGF: human recombinant kFGF, member of the FGF family, radioiodinated for binding (protein, UniProt P08620 31-206, looked up)
Fibroblast growth factor 4: APTAPNGTLEAELERRWESLVALSLARLPVAAQPKEAAVQSGAGDYLLGIKRLRRLYCNVGIGFHLQALPDGRIGGAHADTRDSLLELSPVERGVVSIFGVASRFFVAMSSKGKLYGSPFFTDECTFKEILLPNNYNAYESYKYPGMFIALSKNGKTKKGNRVSPTMKVTHFLPRL
modifications: radioiodinated

Key:
flg = assay: Saturation (equilibrium) binding of [125I]FGF to flg-overexpressing cells, Scatchard analysis; parameters: species or system human; details: for binding of [125I]aFGF and [125I]bFGF at saturation to flg in presence of unlabelled ligand: 100 fold molar excess of unlabelled ligand
Method: (§1) Bovine derived aFGF, purified as previously described (Burgess, et al., J. Biol. Chem., 260: 11389-11392 (1985)), human recombinant bFGF (a kind gift of Dr. Moscatelli) and human recombinant kFGF (a kind gift of Dr. Claudio Basilico) were radioiodinated using the protocol for Enzymobeads (BioRad). The specific activity of the radiolabelled ligand was determined by radioisotope dilution using the respective unlabelled competitsr. The concentrations of the unlabelled ligands were determined by amino acid analysis (Jaye, et al., 1987 supra). The specific activity of the different preparations of [^125 I]aFGF varied between 130,000-760,000 cpm/ng and the specific activity for [^125 I]bFGF between 50,000-500,000 cpm/ng. The specific activity of [^125 I]kFGF varied from 50,000-200,000 cpm/ng. The binding assay was performed as follows: Fibronectin-coated 24 well dishes containing 1×10^5 cells/well were placed on ice, and the wells were rinsed twice with cold binding buffer (DMEM, 1 mg/ml BSA, 5 U/ml heparin, 50 mM Hepes, pH 7.4). Dishes were incubated on ice with 1 ml of ice cold binding buffer for 20 minutes, followed by 2 hours at 4° C. with serial dilutions of the [^125 I]FGF in cold binding buffer without heparin. Nonspecific binding was obtained using the same serial dilutions but in the presence of 100 fold molar excess of non-radioactive aFGF. After incubation, the cells were placed on-ice and rinsed twice with ice cold binding buffer minus heparin and then solubilized in 0.3N NaOH 37° C., 15 minutes. When [^125 I]bFGF was used the cells were placed on ice after incubation, washed three times with PBS, twice with 1 ml 2M NaCl in 20 mM Hepes, pH 7.5 and twice with 1 ml 2M NaCl in 20 mM sodium acetate, pH 4.0. The radioactivity released by the acid 2M NaCl wash represents specific binding to high affinity sites (Moscatelli, J. Cell. Physiol., 131: 123-130 (1987)). Acidic and basic FGF were radioiodinated and purified on heparin-Sepharose as described above. The dissociation constants of bek and fiq for aFGF and bFGF were established by saturation binding analysis of the overexpressing cell lines with the iodinated ligands. Binding of both aFGF and bFGF to bek and flg was specific and saturable (FIG. 6A, inserts). […] Also kFGF binds to bek with similar affinity as does bFGF but binds to flg with 4-foldless avidity than does bFGF. The data from additional experiments yield apparent Kds of aFGF for flg in the range of 20-80 pM and for bek in the range of 40-100 pM. […] The range of values probably arises from determinations of the specific activity and biological integrity of different preparations of the iodinated ligands. […] These conclusions were supported by competition (isotope dilution) experiments in which increasing amounts of nonradioactive aFGF or bFGF competed for binding with [^125 I]aFGF and [^125 I]bFGF to flg- and bek-overexpressing cells.

bek = assay: Saturation (equilibrium) binding of [125I]FGF to bek-overexpressing cells, Scatchard analysis; parameters: species or system human; details: for binding of [125I]aFGF and [125I]bFGF at saturation to bek in presence of unlabelled ligand: 100 fold molar excess of unlabelled ligand
Method: as §1

[1] = data from additional experiments, read-out: apparent Kd for flg, range
[2] = typical experiment, Scatchard analysis, flg-overexpressing NIH 3T3 cells (flg26), 4° C., read-out: affinity (dissociation constant) for flg
[3] = within any single experiment, compared to aFGF
[4] = data from additional experiments, read-out: apparent Kd for bek, range
[5] = typical experiment, Scatchard analysis, bek-overexpressing NIH 3T3 cells (bek8; bek13 for kFGF), 4° C., read-out: affinity (dissociation constant) for bek

Row | Molecule | binding of [125I]aFGF and [125I]bFGF at saturation to flg in presence of unlabelled ligand (flg) | Kd (flg; [1]) | Kd (flg; [2]) | fold lower affinity for flg compared to aFGF (flg; [3]) | binding of [125I]aFGF and [125I]bFGF at saturation to bek in presence of unlabelled ligand (bek) | Kd (bek; [4]) | Kd (bek; [5]) | fold lower affinity for bek compared to aFGF (bek; [3]) | fold less avidity for flg than bFGF (flg; compared to bFGF)
1 | bFGF: human recombinant basic fibroblast growth factor, radioiodinated for binding | completely eliminated | 0.05 to 0.15 nM | 0.047 nM | approximately 2 fold | completely eliminated | 0.08 to 0.15 nM | 0.082 nM | approximately 2 fold | –
2 | B1 | completely eliminated | 0.02 to 0.08 nM | 0.024 nM | – | completely eliminated | 0.04 to 0.1 nM | 0.047 nM | – | –
3 | B2 | – | – | 0.32 nM | – | – | – | 0.08 nM | – | 4 fold
